By Kd is commonly meant the concentration at which binding is half-saturated. The koff is the first-order rate constant of dissociation. Read a high koff as a short-lived complex. A word on the kon: it is a measure of how fast the partners come together.

The values below come from PMC8092709 (Journal of Virology, 2021).

Assay [1] has as its target human aminopeptidase N (hAPN), residues 66 to 967 (human) (UniProt P15144). The assay can be described thus: SPR. On the technique in general: Surface plasmon resonance follows binding to a sensor surface in real time, without labels.
Assay [2] addresses T1, HCoV-229E S glycoprotein ectodomain trimer (S-trimer) (HCoV-229E, UniProt P15423 16-1116).
T1 sequence: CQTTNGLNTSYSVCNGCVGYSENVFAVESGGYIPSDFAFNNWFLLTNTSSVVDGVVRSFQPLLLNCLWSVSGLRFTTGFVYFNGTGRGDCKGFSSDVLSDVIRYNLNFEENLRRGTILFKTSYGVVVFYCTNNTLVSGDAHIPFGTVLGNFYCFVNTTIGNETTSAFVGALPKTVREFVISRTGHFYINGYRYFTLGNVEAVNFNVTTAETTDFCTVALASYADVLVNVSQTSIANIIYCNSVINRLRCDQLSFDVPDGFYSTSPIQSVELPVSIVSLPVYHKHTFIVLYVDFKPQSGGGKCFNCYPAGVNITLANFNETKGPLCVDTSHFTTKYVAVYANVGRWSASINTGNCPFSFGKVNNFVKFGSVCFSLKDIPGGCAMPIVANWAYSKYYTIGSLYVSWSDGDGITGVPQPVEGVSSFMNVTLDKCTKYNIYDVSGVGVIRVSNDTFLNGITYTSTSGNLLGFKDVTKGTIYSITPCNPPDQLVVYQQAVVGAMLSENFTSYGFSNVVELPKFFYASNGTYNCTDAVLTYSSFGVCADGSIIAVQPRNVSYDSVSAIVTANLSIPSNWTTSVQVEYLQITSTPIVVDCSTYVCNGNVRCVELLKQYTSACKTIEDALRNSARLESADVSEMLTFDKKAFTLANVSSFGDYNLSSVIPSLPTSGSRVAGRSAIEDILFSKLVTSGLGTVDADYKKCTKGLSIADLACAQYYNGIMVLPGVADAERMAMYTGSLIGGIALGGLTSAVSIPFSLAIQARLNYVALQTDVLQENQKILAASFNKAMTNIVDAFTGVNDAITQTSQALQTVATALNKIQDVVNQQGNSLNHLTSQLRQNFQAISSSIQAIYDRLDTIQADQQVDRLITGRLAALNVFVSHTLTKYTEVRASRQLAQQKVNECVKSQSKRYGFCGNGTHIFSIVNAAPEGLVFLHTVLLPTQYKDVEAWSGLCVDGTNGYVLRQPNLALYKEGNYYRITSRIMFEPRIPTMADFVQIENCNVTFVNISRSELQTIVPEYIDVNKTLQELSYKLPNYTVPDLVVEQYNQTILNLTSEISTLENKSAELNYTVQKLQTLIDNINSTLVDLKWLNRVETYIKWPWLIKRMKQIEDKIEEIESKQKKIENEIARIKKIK
The assay can be described thus: SPR.

In assay [1], “HCoV-229E NTD-deficient S-trimer (S-trimer/ΔNTD) (from UniProt P15423 16-1116) (domain or fragment)” showed an equilibrium dissociation constant (Kd) of 2.12 nM, a koff of 4.1e-05 s⁻¹ and an association rate constant (kon) of 19400 M⁻¹ s⁻¹.

B1: human aminopeptidase N (hAPN), residues 66 to 967 (receptor)
chain: DQSKAWNRYRLPNTLKPDSYRVTLRPYLTPNDRGLYVFKGSSTVRFTCKEATDVIIIHSKKLNYTLSQGHRVVLRGVGGSQPPDIDKTELVEPTEYLVVHLKGSLVKDSQYEMDSEFEGELADDLAGFYRSEYMEGNVRKVVATTQMQAADARKSFPCFDEPAMKAEFNITLIHPKDLTALSNMLPKGPSTPLPEDPNWNVTEFHTTPKMSTYLLAFIVSEFDYVEKQASNGVLIRIWARPSAIAAGHGDYALNVTGPILNFFAGHYDTPYPLPKSDQIGLPDFNAGAMENWGLVTYRENSLLFDPLSSSSSNKERVVTVIAHELAHQWFGNLVTIEWWNDLWLNEGFASYVEYLGADYAEPTWNLKDLMVLNDVYRVMAVDALASSHPLSTPASEINTPAQISELFDAISYSKGASVLRMLSSFLSEDVFKQGLASYLHTFAYQNTIYLNLWDHLQEAVNNRSIQLPTTVRDIMNRWTLQMGFPVITVDTSTGTLSQEHFLLDPDSNVTRPSEFNYVWIVPITSIRDGRQQQDYWLIDVRAQNDLFSTSGNEWVLLNLNVTGYYRVNYDEENWRKIQTQLQRDHSAIPVINRAQIINDAFNLASAHKVPVTLALNNTLFLIEERQYMPWEAALSSLSYFKLMFDRSEVYGPMKNYLKKQVTPLFIHFRNNTNNWREIPENLMDQYSEVNAISTACSNGVPECEEMVSGLFKQWMENPNNNPIHPNLRSTVYCNAIAQGGEEEWDFAWEQFRNATLVNEADKLRAALACSKELWILNRYLSYTLNPDLIRKQDATSTIISITNNVIGQGLVWDFVQSNWKKLFNDYGGGSFSFSNLIQAVTRRFSTEYELQQLEQFKKDNEETGFGSGTRALEQALEKTKANIKWVKENKEVVLQWFTENSK
In assay [2], B1 returned an equilibrium dissociation constant (Kd) of 3.29 nM, an off-rate constant (koff) of 0.000121 s⁻¹ and a kon of 36700 M⁻¹ s⁻¹.
